Test results reported in article PMC9638028, “Yeast Smy2 and its human homologs GIGYF1 and -2 regulate Cdc48/VCP function during transcription stress” (Cell Reports, 2022).
Where a chain is given by its changes, count along the chain named. In names and notes the source's numbering stands. One block for each binder: values may come before it.

Target: T1, Cdc48-FLAG3 (S. cerevisiae, UniProt P25694 1-835)
T1 construct: Cdc48, S. cerevisiae; the results and the purification methods say it was purified from yeast; also called FLAG-tagged Cdc48; purified Cdc48; source: S. cerevisiae W303, expressed from the endogenous locus; in extract for the co-IP
Test: pull-down; GST, GST-GYF or GST-GAF on glutathione beads, 10-fold molar excess of Cdc48-Flag; 20 mM Tris pH 7.5, 200 mM NaCl, 0.05% Triton X-100, 15% glycerol, 75 ug/mL BSA; 2 h; western blot
Details: both partners purified

T1 sequence (P25694 whole entry): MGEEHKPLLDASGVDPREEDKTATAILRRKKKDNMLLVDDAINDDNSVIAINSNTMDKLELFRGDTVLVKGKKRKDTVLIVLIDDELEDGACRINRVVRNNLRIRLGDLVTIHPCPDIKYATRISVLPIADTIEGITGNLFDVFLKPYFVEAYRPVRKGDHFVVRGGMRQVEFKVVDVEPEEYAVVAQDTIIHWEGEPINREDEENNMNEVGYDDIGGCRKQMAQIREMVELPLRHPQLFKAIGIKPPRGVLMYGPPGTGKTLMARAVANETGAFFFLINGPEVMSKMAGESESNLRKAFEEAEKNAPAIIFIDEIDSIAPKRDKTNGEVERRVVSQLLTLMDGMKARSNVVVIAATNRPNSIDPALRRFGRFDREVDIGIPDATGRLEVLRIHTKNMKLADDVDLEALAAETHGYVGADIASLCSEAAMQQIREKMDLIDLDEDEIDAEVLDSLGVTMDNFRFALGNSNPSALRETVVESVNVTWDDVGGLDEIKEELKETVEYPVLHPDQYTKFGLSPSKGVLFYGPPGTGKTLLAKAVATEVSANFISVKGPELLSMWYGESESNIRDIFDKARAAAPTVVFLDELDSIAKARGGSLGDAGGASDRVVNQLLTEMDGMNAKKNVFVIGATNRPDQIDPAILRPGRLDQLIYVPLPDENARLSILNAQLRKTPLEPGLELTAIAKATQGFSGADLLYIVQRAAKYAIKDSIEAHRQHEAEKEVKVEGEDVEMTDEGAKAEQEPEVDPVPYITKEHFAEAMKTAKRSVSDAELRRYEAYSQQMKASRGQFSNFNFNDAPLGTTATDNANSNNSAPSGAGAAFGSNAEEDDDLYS

- binding result: binds
B1: GST-Smy2 (205-261), GYF (domain or fragment, S. cerevisiae, UniProt P32909 205-261, looked up)
chain: ESSWRYIDTQGQIHGPFTTQMMSQWYIGGYFASTLQISRLGSTPETLGINDIFITLG
notes: Smy2, S. cerevisiae, amino acids 205-261 holding the GYF motif; Vector pGST 6p-1 / pGEX 6p-1; also called GST-GYF; GST-Smy_(205-261); source: bacterial expression (E. coli), purified on glutathione agarose beads

- binding result: binds
B2: GST-Smy2 (205-261) Y234A, GAF (domain or fragment, S. cerevisiae, UniProt P32909 205-261, looked up)
chain: B1 chain with Y30A
notes: Smy2, S. cerevisiae, amino acids 205-261 with the GYF motif changed to GAF; also called GST-GAF; mutated (GAF) version; source: bacterial expression (E. coli), purified on glutathione agarose beads
